Patent US20220289791A1 (UNIVERSIT CATHOLIQUE DE LOUVAIN, published 2022)
Blank lines part the entries; values can stand above or below the binder they belong to. *1 amine or outer side, *2 acyl side, *3 side chain or, on linkers, in order; H or OH if unused. Bridges are numbered along the chain shown (N, C = ends). Where no end group is shown, it is not given here. C6F4(1,4-diyl) = Fc1c(F)c([*:2])c(F)c(F)c1[*:1]

How the values were obtained:
[1] = molecular target: T1, LDH1, tetramer of full length human LDHB subunits (human, UniProt P07195 2-334); test: biochemical and biophysical evaluation, not specified further
T1 construct: Homotetramer; also called LDHBfl; full length LDHB

[2] = molecular target: T1, LDH1, tetramer of full length human …; test: MST on tetrameric LDH1, 10 to 20 s on time
[3] = molecular target: T2, human LDH5, tetramer of human LDHA subunits (human, UniProt P00338 1-332); test: MST on tetrameric LDH5, Kd from red-dye raw fluorescence
[4] = molecular target: T2, human LDH5, tetramer of human LDHA …; test: cell-based or functional assay
[5] = molecular target: T1, LDH1, tetramer of full length human …; test: cell-based or functional assay

T1 sequence (P07195 2-334 limits assumed): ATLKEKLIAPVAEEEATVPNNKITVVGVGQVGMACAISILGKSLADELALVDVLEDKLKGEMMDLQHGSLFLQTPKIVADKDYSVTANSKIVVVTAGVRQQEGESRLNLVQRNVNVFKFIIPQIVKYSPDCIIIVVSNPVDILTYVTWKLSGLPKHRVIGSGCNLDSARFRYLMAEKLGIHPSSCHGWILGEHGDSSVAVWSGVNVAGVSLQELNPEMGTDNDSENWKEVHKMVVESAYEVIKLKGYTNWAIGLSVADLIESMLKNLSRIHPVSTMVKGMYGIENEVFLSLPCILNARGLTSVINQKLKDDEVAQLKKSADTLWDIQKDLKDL

binding result [1]: no binding
B1: LB19, LDHB 19 N-terminal amino acid peptide (peptide)
peptide: ATLKEKLIAPVAEEEATVP-NH2

Kd [2]: ~380 µM
Kd [3]: ~117 µM
EC50 of disruption of the tetrameric state (normalised 350 nm intrinsic fluorescence) [5]: 172 µM
B2: macrocyclic peptide MP7 (peptide)
peptide: CTLKCKLI-NH2
modifications: linker 1-5 via C6F4(1,4-diyl); N-terminus assumed
SMILES: CC[C@H](C)[C@H](NC(=O)[C@H](CC(C)C)NC(=O)[C@H](CCCCN)NC(=O)[C@@H]1CSc2c(F)c(F)c(c(F)c2F)SC[C@H](N)C(=O)N[C@@H]([C@@H](C)O)C(=O)N[C@@H](CC(C)C)C(=O)N[C@@H](CCCCN)C(=O)N1)C(N)=O
ΔTm, thermal denaturation by nanoDSF, 400 µM MP7 [4]: -5 ° C.
ΔTm, thermal denaturation by nanoDSF, 400 µM MP7 [5]: -1.5 ° C.
